Measured values: PMC8322077, “Antibody toolkit reveals N-terminally ubiquitinated substrates of UBE2W” (Nature Communications, 2021)

Biological target: T1, biotinylated ubiquitin (UniProt P0CG48 1-76, biotin)
T1 construct: ubiquitin (monoubiquitin); also called biotin-Ub; monoubiquitin; source: bought: Boston Biochem (Cat# UB-570)
Assay: BLI; Octet Red384; biotinylated ubiquitin immobilised on streptavidin biosensors; analyte fourfold dilutions starting at 5 μM; 25 °C; 150 mM NaCl, 20 mM Tris 7.5, 1 mg/mL BSA, 0.01% Tween-20, 1 mM TCEP; association 180 s, dissociation 300 s
Settings: both partners purified

B1: UCHL5^WT (enzyme, UniProt Q9Y5K5 1-329, looked up)
chain: MTGNAGEWCLMESDPGVFTELIKGFGCRGAQVEEIWSLEPENFEKLKPVHGLIFLFKWQPGEEPAGSVVQDSRLDTIFFAKQVINNACATQAIVSVLLNCTHQDVHLGETLSEFKEFSQSFDAAMKGLALSNSDVIRQVHNSFARQQMFEFDTKTSAKEEDAFHFVSYVPVNGRLYELDGLREGPIDLGACNQDDWISAVRPVIEKRIQKYSEGEIRFNLMAIVSDRKMIYEQKIAELQRQLAEEEPMDTDQGNSMLSAIQSEVAKNQMLIEEEVQKLKRYKIENIRRKHNYLPFIMELLKTLAEHQQLIPLVEKAKEKQNAKKAQETK
notes: ubiquitin C-terminal hydrolase L5 (UCHL5), full-length wild type; also called UCH37; source: E. coli BL21-Gold(DE3), purified (Ni-NTA, SEC)
B1: binds.
